Measurements from patent publication US20200270310A1, “MAFG AS A POTENTIAL THERAPEUTIC TARGET TO RESTORE CHEMOSENSITIVITY IN PLATINUM-RESISTANT CANCER CELLS” (FUNDACÓIN PARA LA INVESTIGACIÓN BIOMÉDICA DEL HOSPITAL …, priority 2017, published 2020).

B1: GCGGATGAAGACTGGTGTCGATGCATGTGTAGTGCATTTCGAGCCGTTCTATTGGTGTGCCCTAAATACGAGCAAC (nucleic acid)
chain: GCGGATGAAGACTGGTGTCGATGCATGTGTAGTGCATTTCGAGCCGTTCTATTGGTGTGCCCTAAATACGAGCAAC
modifications: chemistry not given here
notes: DNA aptamer selected against the MAFG protein by SELEX

What was measured:
H23S cells = assay: ROS production after CDDP exposure, sensitive cells; format: cell-based, human
Experimental: (§1) FIG. 2. Viability assays and Reactive Oxygenated Species detection after CDDP treatment in H23 cell lines. (A) Viability to CDDP in H23S (left) and H23R (right) at 24, 48 and 72 hours and 6 concentrations of CDDP measured by MTT assay. (B) Increment of ROS production in H23S (left) and H23R (right) after 24, 48 and 72 hours of CDDP treatment. $: 72h (vs Basal).
(§2) H23/A2780 cells were cultured in 96-well black plates at density of 10,000 cells/well. Cells were treated with 6 different doses of CDDP for 24, 48 and 72 h in RPMI containing 10% FBS. Then treatments were removed and cells were loaded with the fluorescent probe 2′,7′-dichlorodihydrofluorescein diacetate (H2DCFDA) (10 μM) for 45 minutes in RPMI medium (FBS free). Cells were washed twice with RPMI (10% FBS), and fluorescence was recorded in a Fluostar Optima, each hour, over 4 hours period. […] ROS production was calculated dividing the mean H2DCFDA fluorescence by the mean viability. […] All experiments included cells treated with RPMI alone (Basal), and one well without cells as fluorescence basal.
(§3) H23/A2780 cells were cultured in 96-well black plates at density of 10,000 cells/well. […] Cells were washed twice with RPMI (10% FBS), and fluorescence was recorded in a Fluostar Optima at 520 nm after excitation at 485 nm. […] ROS production was calculated dividing the mean H2DCFDA fluorescence by the mean viability. […]

[1] = system: A2780 ovarian cancer cells; assay: ROS production after CDDP exposure, ovarian cells; format: cell-based, human
Experimental: as §1, with “3.” for “2.”, “A2780” for “H23”, “A2780S” for “H23S”, “A2780R” for “H23R”
as §2, §3

[2] = molecular target: T1, MAFG in H23S and H23R cells (Homo sapiens, UniProt O15525); assay: Aptacytochemistry with digoxigenin-labeled individual aptamers; format: cell-based
T1 construct: endogenous in cells; host or cells: H23S and H23R (NSCLC cells, fixed)
Experimental: Following the methodology described above, H23R cells were incubated with 6 pmol of digoxigenin-labeled aptamers (IBA Life Sciences) in selection buffer for 1 hour at room temperature. Subsequently, cells were washed three times with PBS and incubated with anti-digoxigenin conjugated with 5′ AlexaFluor 488 (R&D systems, USA) at 1/500 dilution in blocking buffer for 1 hour at room temperature, as secondary antibody. Finally, the cells were mounted on glass slides using glycerol-buffer containing p-phenylenediamine and 1/750 dilution of Dapi for nuclear staining. Controls were made by omitting the aptamer. Colocalization was assessed by confocal microcopy as described in (iii).

[3] = molecular target: T2, MAFG in tumor samples of patients with lung cancer (Homo sapiens, UniProt O15525); assay: Aptahistochemistry in NSCLC tumor samples; details: 20 tumor samples classified by MAFG mRNA levels
T2 construct: from tissue; host or cells: Formalin-fixed paraffin-embedded NSCLC tumour sections
Experimental: The formalin-fixed and paraffin-embedded tissue sections of patients with lung cancer were baked 15 minutes at 60° C. Deparaffinization was performed by two washes of xylene for 10 minutes each. Tissue sections were rehydrated by a sequential wash in 100%, 90%, 80%, 70% ethanol and distilled water for 5 minutes each. Antigen retrieval was achieved by heat treatment in a pressure cooker for 2 minutes in 10 mM citrate buffer (pH 6.5). Endogenous peroxidase activity of tissues was blocked with 0.3% […]. The primary binding reaction was performed with 10 pmol/ml of digoxigenin-conjugated aptamers overnight at room temperature. The secondary binding reaction was performed with anti-digoxigenin conjugated with POD (Roche; 1/200 dilution in TBS) for 45 minutes. Staining was done using the Immunoperoxidase DAB kit (Master Diagnostica), according to the manufacturer's instructions. The sections were counterstained with hematoxylin.
We then took advantage of the aptacytochemistry to perform an aptamer-based histochemistry in 20 tumor samples from our cohort of patients with known mRNA levels of MAFG. […] To determine the correlation between the aptahistochemistry and the mRNA levels of MAFG, we calculated the percentage of cells with positive staining from the total number of cells computed at four different areas randomly selected for each sample.

H1299 cells = assay: Expression of MAFG and HMOX1 in cells carrying the aptamer; format: cell-based, human; details: cells carrying apMAFG6F
Experimental: For semiquantitative RT-PCR, 500 ng of total RNA isolated from cell lines was used for RT reaction using PrimeScript™ RT Master (Clontech-Takara, USA) and subsequent semiquantitative PCR using Promega PCR Mix (Promega, USA) as previously described. Relative quantification was performed by measuring the intensity of band amplified using ImageJ software. Primers for HMOX1 (F: 5′-[…]-3′; R: 5′-[…]-3′), MAFG (F: 5′-[…]-3′; R: 5′-[…]-3′) and GAPDH (F: 5′-GAGAGACCCTCACTGCTG-3′; R: 5′-[…]-3′) were designed to include the probe from the array in order to assure the correct transcript identification.

[4] = system: H23S cells overexpressing MAFG; assay: CDDP sensitivity of MAFG-overexpressing cells combined with aptamer; format: cell-based, human
Experimental: HEK293 and H23S/R cells were seeded into 96-well plates then transfected with 5, 12.5, 25, 75 and 100 nM of MAFG aptamers or treated with PBS-Mg using Jet Pei PolyPlus transfection reagent (PolyPlus Transfection, USA). The dose of 25 nM aptamer was afterwards used in combination with increased doses of CDDP to assay viability and ROS production as described above. To confirm the aptamer-transfection efficiency cells were seeded in 24-well plates for aptamer isolation and confirmation of aptamer transfection by quantitative analysis. A Myc-DDK-tagged ORF clone of MAFG the negative control pCMV6 were used for in transient transfection (OriGene, USA) in combination with MAFG-aptamers following the same procedure.

| Molecule | ROS production versus basal untreated cells (H23S cells; 3.00 μg/ml CDDP) | ROS after treatment with the drug (H23S cells; Example 1) | differences in ROS production between sensitive and resistant cells [1] | cellular localization of the aptamer [2] | number of dots per nucleus, H23R versus H23S [2] | percentage of positive cells in samples with higher MAFG levels [3] | HMOX1 expression (H1299 cells) | MAFG expression (H1299 cells) | CDDP sensitivity of MAFG-overexpressing cells with aptamer [4] |
| --- | --- | --- | --- | --- | --- | --- | --- | --- | --- |
| [NH2][Pt]([NH2])([Cl])[Cl] [CDDP, Cisplatin] | 300% | increased | confirmed | – | – | – | – | – | – |
| B1 | – | – | – | preferentially located at the nuclei | remarkable differences | significant increment in the percentage of positive cells | decrease | decrease | rescued the phenotype and re-sensitized the cells |
